The values that follow come from patent US7241873B2, “Recombinant anti-osteopontin antibody and use thereof” (Juridical Foundation the Chemo-sero-therapeutic Research …, priority 2001, dated 2007).

Assay [1] has as its system human peripheral monocyte migration toward thrombin-cleaved OPN. Kind of assay: Migration of TNF-α-activated human peripheral monocyte toward thrombin-cleaved OPN (murine 2K1). Format: cell-based. Conditions: for Mean migrating cell counts per 1 mm^3 (monocyte): thrombin-cleaved OPN 10 μg/mL. The procedure: (§1) By the Ficoll method, a monocyte fraction and a neutrophil fraction were separated from normal human peripheral blood (P. M. Daftarian et al., (1996): Journal of Immunology, 157, 12–20). The intermediate layer between Ficoll and serum was collected and cultured in a flask at 37° C. for one hour. The resulting attached cell was used as monocyte. To the erythrocyte layer remaining after collection of the monocyte fraction was added a 5-fold volume of 3% dextran-PBS to aggregate erythrocyte, followed by centrifugation at 150×g and 4° C. for 5 minutes.
(§2) The aggregated erythrocyte was precipitated, while in the resulting supernatant, neutrophil existed in suspended state. Then, the fraction was centrifuged at 500×g and ambient temperature for 20 minutes, to recover neutrophil. The monocyte and neutrophil as recovered in such manner were cultured overnight with human TNF-α (20 ng/mL) for activation. Then, the resulting activated monocyte and neutrophil were used for migration experiments.
(§3) The migration experiments were done, using a 48-well micro chemotaxis chamber (manufactured by Neuro Probe Inc.). After various concentrations of the murine 2K1 antibody were added to the thrombin-cleaved OPN and were then preliminarily left to stand at 37° C. for 15 minutes, the mixtures were added to the lower chamber (to a final human OPN concentration of 10 μg/mL). Placing thereon a polycarbonate filter (pore size of 5 μm), further, a cell suspension (2×10^6 cells/mL) of 50 μL was added to the upper chamber.
(§4) After culturing in the presence of 5% CO2 at 37° C. for 2 hours, the polycarbonate filter was removed to discard the cells on the upper surface of the filter; subsequently, the cells infiltrating to the back face of the filter were stained with Diff-Quick (manufactured by Baxter International Inc.). The stained cells were counted at a magnification×40. The results are shown as mean cell counts (cells/mm^3)±SD in 6 wells.

In assay [2] the test system is OPN-induced migration of human monocyte U937. Kind of assay: OPN-induced U937 cell migration test (ChemoTx). Format: cell-based. Conditions: U937, OPNs 10 μg/ml, antibody 50 μg/ml, FIG. 3b. The procedure: A cell migration test using the U937 cell was performed by using a system ChemoTx101-8 (Neuro Probe Inc.). The cell was adjusted to 2×10^6 cells/ml with D-MEM containing 0.1% BSA, which was then applied to the upper layer on a filter (with a pore size of 8 μm), while the OPN protein was added to the lower layer.
The ChemoTx plate was left to stand in the presence of 5% CO2 at 37° C. for 4 hours. After the plate was left to stand, the filter was fixed with methanol, and was then stained with hematoxylin and eosin (H-E). The number of the cells migrating to the back face of the filter was counted with a microscope (magnification×400). The test was done in a triplicate manner, and the mean was used as data.

Assay [3] relates to adhesion of human fibroblast TIG-7 to CHO/OPN-a. Put plainly: Inhibition of TIG-7 cell adhesion to OPN. It is filed as cell-based. The procedure: (§5) It was examined by the following method as to whether or not the murine monoclonal antibodies inhibited cell adhesion to OPN. First, a 96-well plate was precoated with various concentrations of the CHO/OPN-a at 4° C. overnight, which was then treated with 0.5% BSA in PBS under conditions of 37° C. for 10 minutes, so as to block non-specific adhesion. A human fibroblast TIG-7 or SW480 cell transformed with the cDNA of an integrin subunit α9 (referred to as “α9-transformed SW480 cell” hereinafter) was suspended in D-MEM containing 0.25% BSA; 200 μl of the resulting cell suspension (at a cell concentration of 5×10^4 cells/well) was injected in a 96-well plate precoated with the CHO/OPN-a or nOPN, in the presence or absence of various concentrations of the monoclonal antibodies or synthetic peptides, for incubation at 37° C. for one hour.
(§6) The culture medium was discarded from the plate, and all the wells were rinsed twice with D-MEM containing 0.25% BSA. The adherent cells were fixed and stained with 0.5% crystal violet in 20% methanol for 30 minutes.
All the wells were rinsed three times with water, and the adherent cells were then solubilized into 20% acetic acid. The resulting supernatant recovered from each well was analyzed with an immunoreader, to measure the absorbance at 590 nm to determine the relative count of the cells adhering to the well. All the assays were done in a triplicate fashion, and at least three independent experiments were performed. The values shown represent mean at three independent experiments.

For assay [4], the system named is adhesion of α9-transformed SW480 cell to nOPN. Kind of assay: Adhesion of α9-transformed SW480 cell to nOPN. Format: cell-based, human. To be noted: FIG. 2B. The procedure:
as §5, §6
All the wells were rinsed three times with water, and the adherent cells were then solubilized into 20% acetic acid. The resulting supernatant recovered from each well was analyzed with an immunoreader, to measure the absorbance at 590 nm to determine the relative count of the cells adhering to the well. […]

Assay [5] deals with adhesion of TIG-7 cell to vitronectin (VN) or fibronectin (FN). Put plainly: TIG-7 cell adhesion to vitronectin or fibronectin. Format: cell-based, human.
Assay [6] concerns adhesion of α9-transformed SW480 cell to vitronectin. Put plainly: Adhesion of α9-transformed SW480 cell to vitronectin. Conditions: FIG. 2B. Format: cell-based, human.
Assay [7] has as its system human peripheral neutrophil migration toward thrombin-cleaved OPN. Kind of assay: Migration of TNF-α-activated human peripheral neutrophil toward thrombin-cleaved OPN. It is filed as cell-based. To be noted: for Mean migrating cell counts per 1 mm^3 (neutrophil): thrombin-cleaved OPN 10 μg/mL. Here is the method: as §1, §2, §3, §4
The target of assay [8] is T1, human OPN (GST-OPN-a, GST-OPN-b, GST-OPN-c, GST-N half, GST-C half, CHO/OPN-a, thrombin-cleaved OPN) (Homo sapiens, UniProt P10451).
T1 construct: cDNAs encoding the full-length human OPN-a and OPN-b individually including the respective signal peptide regions; made in house; host or cells: Escherichia coli JM109
Kind of assay: Western blotting of murine monoclonal antibodies with OPN and thrombin digestion products. Format: binding. The procedure: (§7) The binding potencies of the murine monoclonal antibodies 2K1 (referred to as “murine 2K1 antibody” hereinafter) and 4C1 recovered in the Example 2 to OPN and the thrombin digestion products thereof were tested by Western blotting method. […] Further, these monoclonal antibodies were not only bound to the recombinant OPNs of non-glycosylated type as generated in Escherichia coli but also reacted with the CHO/OPN-a protein of sugar-chain-bound type and the thrombin digestion products thereof (referred to as “thrombin-cleaved OPN” hereinafter).
For orientation: In western blotting, separated proteins are transferred to a membrane and probed.

The test system of assay [9] is human OPN (GST-OPN-a, GST-OPN-b, GST-OPN-c, GST-N half, GST-C half, CHO/OPN-a, thrombin-cleaved OPN). The assay is described as above. Format: binding. Here is the method: as §7

T1 sequence (P10451 17-168): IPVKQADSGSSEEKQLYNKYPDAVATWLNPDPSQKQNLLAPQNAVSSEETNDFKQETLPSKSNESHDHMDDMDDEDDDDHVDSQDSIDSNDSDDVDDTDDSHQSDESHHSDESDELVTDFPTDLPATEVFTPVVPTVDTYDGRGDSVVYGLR

B1: murine 2K1 antibody: murine monoclonal antibody from mice immunized with Peptide 1 (…) of human OPN; hybridoma FERM BP-7883 (antibody, V domains shown)
VH: QVQLQQSGAELVRPGASVKLSCKALGYTFTDYEMHWVKQTPVHGLEWIGAIHPGRGGTAYNQKFKGKATLTADKSSSTAYMELSSLTSEDSAVYYCTRITGYFDVWGAGTTVTVSS
VL: DVLMTQTPLSLPVSLGDQASISCRSSQSIVHSNGNTYLEWYLQKPGQSPKLLIYKVSNRFSGVPDRFSGSGSGTDFTLKISRVEAEDLGVYYCFQGSHVPLTFGAGTKLELKR
notes: murine monoclonal antibody from mice immunized with Peptide 1 (…) of human OPN; hybridoma FERM BP-7883
For B1, the “inhibition of migration of TNF-α-activated human peripheral monocyte toward thrombin-cleaved OPN” value in assay [1] was “inhibited”. Besides, the “Mean migrating cell counts per 1 mm^3 (monocyte)” value is reported as 258.0 ± 71.9 counts per 1 mm^3 in assay [1] (antibody 0.4 μg/mL), 256.7 ± 66.5 counts per 1 mm^3 in assay [1] (antibody 2 μg/mL), 160.0 ± 56.9 counts per 1 mm^3 in assay [1] (antibody 10 μg/mL) and 75.0 ± 55.4 counts per 1 mm^3 in assay [1] (antibody 50 μg/mL). The “inhibition of monocyte migration induced by CHO/OPN-a, thrombin-cleaved OPN and GST-N half” value in [2] was “apparently inhibits”. The “effect on the inhibition of cell adhesion, comparison and concentration dependence” value in assay [3] (TIG-7, FIG. 1C) was “comparative to the effect exerted by mAb53 and is concentration-dependent”. Also, the “inhibition of cell adhesion to OPN” value in [3] (antibody 200 μg/ml, TIG-7, FIG. 1B) is given as “apparently inhibited”. Further, the “inhibition of adhesion between SW480 cell and nOPN” value in [4] is reported as “inhibited”. Moreover, the “inhibition of adhesion of TIG-7 cell to vitronectin (VN) or fibronectin (FN)” value in [5] is “never inhibit”. Further, the “inhibition of adhesion between α9-transformed SW480 cell and vitronectin” value in assay [6] is given as “never inhibited”. In addition, the “inhibition of migration of TNF-α-activated human peripheral neutrophil toward thrombin-cleaved OPN” value in assay [7] is “inhibited”. Moreover, the “Mean migrating cell counts per 1 mm^3 (neutrophil)” value in assay [7] (antibody 0.4 μg/mL) is 566.7 ± 60.2 counts per 1 mm^3; in assay [7] (antibody 2 μg/mL), 550.0 ± 49.0 counts per 1 mm^3; in assay [7] (antibody 10 μg/mL) it was 450.0 ± 90.8 counts per 1 mm^3; in assay [7] (antibody 50 μg/mL), 426.7 ± 30.8 counts per 1 mm^3. The “reactivity with GST-N half” value in assay [8] was “reacted”. The “reactivity with GST-OPN-a, GST-OPN-b, GST-OPN-c” value in assay [9] is recorded as “reacted”.
